{
  "source": "patent US10562947B2",
  "about": "“Compositions and methods for preventing or treating diseases, conditions or processes characterized by aberrant fibroblast proliferation and extracellular matrix deposition” (MOERAE MATRIX, INC., priority 2011, dated 2020)",
  "test_in_all_cases": "Kinase Profiling Assay",
  "type_in_all_cases": "biochemical",
  "key": {"TrkB(h)": {"molecular_target": "TrkB(h) (Homo sapiens, UniProt Q16620)", "conditions": "for TrkB(h) % activity: 100 μM peptide", "summary_of_the_method": "(§1)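 All 266 human kinases of a profiling service were assayed in duplicate to establish whether MK2 inhibitory peptides act specifically.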"}, "IRAK1(h)": {"molecular_target": "T1, IRAK1(h) (Homo sapiens, UniProt P51617)", "T1 construct": "purchased Millipore", "T1 sequence (P51617 whole entry)": "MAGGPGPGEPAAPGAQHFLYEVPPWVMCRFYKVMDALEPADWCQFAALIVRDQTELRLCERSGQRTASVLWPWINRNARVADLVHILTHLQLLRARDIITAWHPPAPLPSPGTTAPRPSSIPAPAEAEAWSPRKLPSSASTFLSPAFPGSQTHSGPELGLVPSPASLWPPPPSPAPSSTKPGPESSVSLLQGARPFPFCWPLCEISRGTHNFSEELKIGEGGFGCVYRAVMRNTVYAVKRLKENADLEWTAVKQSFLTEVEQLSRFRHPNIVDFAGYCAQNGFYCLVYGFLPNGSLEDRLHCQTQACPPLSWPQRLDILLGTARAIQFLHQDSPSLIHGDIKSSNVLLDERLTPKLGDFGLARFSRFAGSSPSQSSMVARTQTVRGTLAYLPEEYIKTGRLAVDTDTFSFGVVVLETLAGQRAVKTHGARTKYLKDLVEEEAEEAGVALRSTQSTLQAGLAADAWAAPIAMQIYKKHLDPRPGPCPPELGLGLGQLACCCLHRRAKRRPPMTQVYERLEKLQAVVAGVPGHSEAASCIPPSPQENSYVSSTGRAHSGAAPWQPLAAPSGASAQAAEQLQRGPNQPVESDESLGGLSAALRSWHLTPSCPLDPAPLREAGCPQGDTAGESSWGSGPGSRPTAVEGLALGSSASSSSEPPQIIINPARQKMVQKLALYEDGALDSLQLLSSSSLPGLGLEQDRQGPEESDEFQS", "conditions": "100 μM peptide", "summary_of_the_method": "as §1"}, "CaMKIIδ(h)": {"molecular_target": "CaMKIIδ(h) (Homo sapiens, UniProt Q13557)", "sequence (Q13557 whole entry)": "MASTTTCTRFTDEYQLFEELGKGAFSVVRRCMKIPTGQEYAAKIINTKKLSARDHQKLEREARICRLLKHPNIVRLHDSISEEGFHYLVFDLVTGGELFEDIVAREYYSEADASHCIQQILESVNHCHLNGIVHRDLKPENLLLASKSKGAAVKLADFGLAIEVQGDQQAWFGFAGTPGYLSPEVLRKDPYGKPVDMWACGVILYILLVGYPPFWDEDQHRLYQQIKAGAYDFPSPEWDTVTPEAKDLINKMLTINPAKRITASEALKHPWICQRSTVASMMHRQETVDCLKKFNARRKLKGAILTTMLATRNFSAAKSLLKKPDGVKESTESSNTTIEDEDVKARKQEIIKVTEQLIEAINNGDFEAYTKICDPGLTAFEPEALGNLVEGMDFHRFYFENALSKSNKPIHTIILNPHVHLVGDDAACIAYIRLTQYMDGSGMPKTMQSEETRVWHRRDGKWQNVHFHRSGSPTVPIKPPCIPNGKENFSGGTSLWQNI", "conditions": "100 μM peptide", "summary_of_the_method": "as §1"}, "IRR(h)": {"molecular_target": "T2, IRR(h) (Homo sapiens, UniProt P14616)", "T2 construct": "purchased Millipore", "T2 sequence (P14616 27-1297)": "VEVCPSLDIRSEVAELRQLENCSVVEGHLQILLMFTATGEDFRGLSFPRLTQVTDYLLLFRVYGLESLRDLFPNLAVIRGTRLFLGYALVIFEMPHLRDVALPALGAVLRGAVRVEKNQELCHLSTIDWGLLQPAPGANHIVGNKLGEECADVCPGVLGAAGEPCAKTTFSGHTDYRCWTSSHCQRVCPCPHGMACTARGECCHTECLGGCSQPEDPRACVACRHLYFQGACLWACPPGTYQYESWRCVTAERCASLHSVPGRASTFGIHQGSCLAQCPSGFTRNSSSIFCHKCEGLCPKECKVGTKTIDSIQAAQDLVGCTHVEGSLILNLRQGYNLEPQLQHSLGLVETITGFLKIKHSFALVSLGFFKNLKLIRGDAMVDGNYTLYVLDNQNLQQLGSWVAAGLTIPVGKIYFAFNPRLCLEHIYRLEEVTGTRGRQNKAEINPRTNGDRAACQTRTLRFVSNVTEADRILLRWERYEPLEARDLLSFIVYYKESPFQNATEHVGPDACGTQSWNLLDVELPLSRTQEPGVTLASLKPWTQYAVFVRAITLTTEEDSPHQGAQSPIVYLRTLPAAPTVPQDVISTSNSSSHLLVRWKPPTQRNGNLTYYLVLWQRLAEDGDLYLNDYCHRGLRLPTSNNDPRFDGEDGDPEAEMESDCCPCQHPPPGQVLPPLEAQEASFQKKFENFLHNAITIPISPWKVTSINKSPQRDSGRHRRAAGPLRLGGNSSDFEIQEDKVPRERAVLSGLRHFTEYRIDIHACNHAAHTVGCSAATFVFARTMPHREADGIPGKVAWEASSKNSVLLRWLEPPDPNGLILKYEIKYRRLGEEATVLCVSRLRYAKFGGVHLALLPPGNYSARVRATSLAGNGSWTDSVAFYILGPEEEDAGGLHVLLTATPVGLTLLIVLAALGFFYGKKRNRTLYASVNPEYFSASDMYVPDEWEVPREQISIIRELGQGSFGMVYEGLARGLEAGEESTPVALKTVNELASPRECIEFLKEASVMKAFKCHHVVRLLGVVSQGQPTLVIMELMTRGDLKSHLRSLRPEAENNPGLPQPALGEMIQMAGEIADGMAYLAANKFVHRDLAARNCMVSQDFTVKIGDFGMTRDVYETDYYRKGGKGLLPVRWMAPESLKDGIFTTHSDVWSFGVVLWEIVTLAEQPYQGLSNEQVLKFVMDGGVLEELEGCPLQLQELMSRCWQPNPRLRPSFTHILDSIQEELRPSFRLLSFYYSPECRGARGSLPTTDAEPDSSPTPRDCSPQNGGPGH", "conditions": "100 μM peptide", "summary_of_the_method": "as §1"}, "LKB1(h)": {"molecular_target": "T3, LKB1(h) (Homo sapiens, UniProt Q15831)", "T3 sequence (Q15831 1-433)": "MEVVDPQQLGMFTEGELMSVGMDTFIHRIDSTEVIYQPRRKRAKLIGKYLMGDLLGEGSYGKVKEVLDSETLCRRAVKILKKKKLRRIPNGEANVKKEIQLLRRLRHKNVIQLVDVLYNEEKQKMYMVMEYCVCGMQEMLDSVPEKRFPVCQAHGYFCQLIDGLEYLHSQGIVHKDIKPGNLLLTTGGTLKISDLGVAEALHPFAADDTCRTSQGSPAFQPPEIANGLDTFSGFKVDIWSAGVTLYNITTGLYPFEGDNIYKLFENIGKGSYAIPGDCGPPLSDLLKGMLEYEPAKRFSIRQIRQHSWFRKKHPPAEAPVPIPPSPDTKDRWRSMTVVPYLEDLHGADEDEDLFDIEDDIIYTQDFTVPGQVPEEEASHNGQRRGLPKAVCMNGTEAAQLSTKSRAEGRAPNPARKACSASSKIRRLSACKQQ", "T3 sequence (Q7RTN6 1-431 partner)": "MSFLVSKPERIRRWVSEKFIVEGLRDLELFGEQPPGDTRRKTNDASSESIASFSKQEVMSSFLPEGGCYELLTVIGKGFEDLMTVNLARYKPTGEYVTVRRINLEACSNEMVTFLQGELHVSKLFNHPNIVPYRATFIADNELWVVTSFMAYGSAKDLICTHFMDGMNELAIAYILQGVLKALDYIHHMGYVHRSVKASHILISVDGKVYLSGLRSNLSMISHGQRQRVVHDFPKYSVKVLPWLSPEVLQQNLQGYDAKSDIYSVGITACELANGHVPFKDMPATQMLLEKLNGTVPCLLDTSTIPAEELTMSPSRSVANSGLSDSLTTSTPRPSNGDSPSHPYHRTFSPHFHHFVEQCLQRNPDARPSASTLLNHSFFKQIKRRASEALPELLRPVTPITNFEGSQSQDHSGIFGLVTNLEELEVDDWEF", "T3 sequence (Q9Y376 1-341 partner)": "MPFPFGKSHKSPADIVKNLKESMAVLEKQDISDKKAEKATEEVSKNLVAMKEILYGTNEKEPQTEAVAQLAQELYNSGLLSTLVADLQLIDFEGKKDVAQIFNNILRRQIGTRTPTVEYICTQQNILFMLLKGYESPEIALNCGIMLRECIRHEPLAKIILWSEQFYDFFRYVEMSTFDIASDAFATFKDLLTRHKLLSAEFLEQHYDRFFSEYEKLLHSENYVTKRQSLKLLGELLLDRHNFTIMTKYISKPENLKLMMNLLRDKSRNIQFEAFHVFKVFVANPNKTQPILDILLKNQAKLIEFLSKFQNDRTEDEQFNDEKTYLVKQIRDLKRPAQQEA", "conditions": "100 μM peptide", "summary_of_the_method": "as §1"}, "TSSK2(h)": {"molecular_target": "T4, TSSK2(h) (Homo sapiens, UniProt Q96PF2)", "T4 sequence (Q96PF2 1-358)": "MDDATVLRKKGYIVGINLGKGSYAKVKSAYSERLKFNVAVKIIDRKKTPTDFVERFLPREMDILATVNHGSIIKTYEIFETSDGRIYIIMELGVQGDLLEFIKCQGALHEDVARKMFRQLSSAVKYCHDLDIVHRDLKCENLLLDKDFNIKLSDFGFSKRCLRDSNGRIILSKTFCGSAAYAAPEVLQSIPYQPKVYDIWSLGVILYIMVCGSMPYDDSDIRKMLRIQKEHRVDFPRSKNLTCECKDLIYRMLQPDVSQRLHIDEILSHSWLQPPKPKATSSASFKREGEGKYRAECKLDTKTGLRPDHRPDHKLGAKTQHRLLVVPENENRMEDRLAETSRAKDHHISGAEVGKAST", "conditions": "100 μM peptide", "summary_of_the_method": "as §1"}, "GSK3α(h)": {"molecular_target": "T5, GSK3α(h) (Homo sapiens, UniProt P49840)", "T5 construct": "purchased Millipore", "T5 sequence (P49840 whole entry)": "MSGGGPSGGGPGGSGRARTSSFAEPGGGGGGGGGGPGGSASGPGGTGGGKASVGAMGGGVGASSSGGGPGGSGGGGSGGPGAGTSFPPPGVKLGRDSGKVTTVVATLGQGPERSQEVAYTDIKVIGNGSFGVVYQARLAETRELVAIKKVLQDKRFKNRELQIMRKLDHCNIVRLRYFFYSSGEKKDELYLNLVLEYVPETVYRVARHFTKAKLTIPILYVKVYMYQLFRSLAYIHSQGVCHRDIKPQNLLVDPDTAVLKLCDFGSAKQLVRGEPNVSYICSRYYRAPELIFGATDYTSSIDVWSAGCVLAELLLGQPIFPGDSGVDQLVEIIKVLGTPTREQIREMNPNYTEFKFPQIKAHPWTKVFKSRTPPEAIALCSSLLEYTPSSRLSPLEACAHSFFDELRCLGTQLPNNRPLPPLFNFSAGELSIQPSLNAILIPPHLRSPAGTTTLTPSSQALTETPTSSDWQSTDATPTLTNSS", "conditions": "100 μM peptide", "summary_of_the_method": "as §1"}, "CDK1/cyclinB(h)": {"molecular_target": "CDK1/cyclinB(h) (Homo sapiens, UniProt P06493)", "sequence (P06493 whole entry)": "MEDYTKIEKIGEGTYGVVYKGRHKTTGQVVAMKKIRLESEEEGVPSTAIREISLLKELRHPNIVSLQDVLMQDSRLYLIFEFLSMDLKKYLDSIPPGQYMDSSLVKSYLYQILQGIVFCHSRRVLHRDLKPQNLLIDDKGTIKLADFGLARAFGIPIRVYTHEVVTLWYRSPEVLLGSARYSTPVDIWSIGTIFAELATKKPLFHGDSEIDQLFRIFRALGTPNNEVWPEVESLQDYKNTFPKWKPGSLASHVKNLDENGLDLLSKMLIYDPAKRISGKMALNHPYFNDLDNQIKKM", "sequence (P14635 whole entry partner)": "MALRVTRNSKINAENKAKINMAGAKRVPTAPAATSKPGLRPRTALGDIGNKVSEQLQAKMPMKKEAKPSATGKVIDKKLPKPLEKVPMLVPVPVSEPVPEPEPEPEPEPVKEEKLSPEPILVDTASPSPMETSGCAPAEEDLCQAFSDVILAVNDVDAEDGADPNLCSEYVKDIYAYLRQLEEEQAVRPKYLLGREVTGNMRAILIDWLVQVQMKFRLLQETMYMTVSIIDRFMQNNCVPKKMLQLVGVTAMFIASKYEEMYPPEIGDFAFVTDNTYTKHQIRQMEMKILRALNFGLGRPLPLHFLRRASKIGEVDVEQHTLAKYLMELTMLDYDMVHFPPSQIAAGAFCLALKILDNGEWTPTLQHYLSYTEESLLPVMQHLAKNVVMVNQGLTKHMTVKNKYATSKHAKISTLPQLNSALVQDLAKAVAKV", "conditions": "100 μM peptide", "summary_of_the_method": "as §1"}, "MST2(h)": {"molecular_target": "T6, MST2(h) (Homo sapiens, UniProt Q13188)", "T6 sequence (Q13188 1-491)": "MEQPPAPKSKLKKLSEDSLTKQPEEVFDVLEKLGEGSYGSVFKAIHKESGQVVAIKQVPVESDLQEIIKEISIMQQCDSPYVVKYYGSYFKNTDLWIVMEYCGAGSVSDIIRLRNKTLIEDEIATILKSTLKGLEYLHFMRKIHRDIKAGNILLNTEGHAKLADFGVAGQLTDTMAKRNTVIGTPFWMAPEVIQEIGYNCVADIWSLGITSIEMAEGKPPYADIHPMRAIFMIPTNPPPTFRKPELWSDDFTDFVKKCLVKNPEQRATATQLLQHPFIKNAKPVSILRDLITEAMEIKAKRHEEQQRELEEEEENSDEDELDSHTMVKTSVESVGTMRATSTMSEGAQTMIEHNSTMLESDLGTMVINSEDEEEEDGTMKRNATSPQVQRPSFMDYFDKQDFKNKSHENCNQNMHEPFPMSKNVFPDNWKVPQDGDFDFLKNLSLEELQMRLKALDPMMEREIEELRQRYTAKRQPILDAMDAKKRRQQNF", "conditions": "100 μM peptide", "summary_of_the_method": "as §1"}, "PrKX(h)": {"molecular_target": "T7, PrKX(h) (Homo sapiens, UniProt P51817)", "T7 construct": "purchased Millipore (IC50 Profiler Express service)", "T7 sequence (P51817 1-358)": "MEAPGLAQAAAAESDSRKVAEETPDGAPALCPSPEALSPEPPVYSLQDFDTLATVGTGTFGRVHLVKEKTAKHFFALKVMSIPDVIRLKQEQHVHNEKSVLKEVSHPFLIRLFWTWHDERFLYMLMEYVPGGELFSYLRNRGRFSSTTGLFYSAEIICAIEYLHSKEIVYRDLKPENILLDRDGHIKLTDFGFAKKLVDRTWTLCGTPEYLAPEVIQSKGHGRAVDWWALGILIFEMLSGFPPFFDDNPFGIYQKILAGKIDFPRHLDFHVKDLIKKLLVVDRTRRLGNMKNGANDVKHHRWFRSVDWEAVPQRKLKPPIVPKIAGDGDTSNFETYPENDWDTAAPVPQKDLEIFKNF", "conditions": "100 μM peptide", "summary_of_the_method": "as §1"}},
  "note": "Where a SMILES comes first, the peptide text is derived from it.",
  "data": [
    {"compound": "YARAAARQARAKALNRQLGVA (Mammalian) [MMI-0200]", "values": [
      {"measurement": "TrkB(h) % activity", "setting": "TrkB(h)", "value": 7, "unit": "%"},
      {"measurement": "IRAK1(h) % activity", "setting": "IRAK1(h)", "value": 101, "unit": "%"},
      {"measurement": "CaMKIIδ(h) % activity", "setting": "CaMKIIδ(h)", "value": 2, "unit": "%"},
      {"measurement": "IRR(h) % activity", "setting": "IRR(h)", "value": 69, "unit": "%"},
      {"measurement": "LKB1(h) % activity", "setting": "LKB1(h)", "value": 99, "unit": "%"},
      {"measurement": "TSSK2(h) % activity", "setting": "TSSK2(h)", "value": 91, "unit": "%"}
    ]},
    {"compound": "HRRIKAWLKKIKALARQLGVAA (Mammalian) [MMI-0500]", "values": [
      {"measurement": "GSK3α(h) % activity", "setting": "GSK3α(h)", "value": 175, "unit": "%"},
      {"measurement": "TrkB(h) % activity", "setting": "TrkB(h)", "value": 12, "unit": "%"},
      {"measurement": "IRAK1(h) % activity", "setting": "IRAK1(h)", "value": 5, "unit": "%"},
      {"measurement": "CaMKIIδ(h) % activity", "setting": "CaMKIIδ(h)", "value": 1, "unit": "%"},
      {"measurement": "IRR(h) % activity", "setting": "IRR(h)", "value": 10, "unit": "%"},
      {"measurement": "LKB1(h) % activity", "setting": "LKB1(h)", "value": 51, "unit": "%"},
      {"measurement": "CDK1/cyclinB(h) % activity", "setting": "CDK1/cyclinB(h)", "value": 57, "unit": "%"},
      {"measurement": "TSSK2(h) % activity", "setting": "TSSK2(h)", "value": 92, "unit": "%"},
      {"measurement": "MST2(h) % activity", "setting": "MST2(h)", "value": 2, "unit": "%"},
      {"measurement": "PrKX(h) % activity", "setting": "PrKX(h)", "value": 57, "unit": "%"}
    ]},
    {"compound": "CC(C)C[C@H](NC(=O)[C@H](C)NC(=O)[C@H](CCCCN)NC(=O)[C@H](C)NC(=O)[C@H](CCCNC(=N)N)NC(=O)[C@H](C)NC(=O)[C@H](CCC(N)=O)NC(=O)[C@H](CCCNC(=N)N)NC(=O)[C@H](C)NC(=O)[C@H](C)NC(=O)[C@H](C)NC(=O)[C@H](CCCNC(=N)N)NC(=O)[C@H](C)NC(=O)[C@@H](N)Cc1ccc(O)cc1)C(=O)N[C@@H](C)C(=O)N[C@@H](CCCNC(=N)N)C(=O)N[C@@H](CCC(N)=O)C(=O)N[C@@H](CC(C)C)C(=O)NCC(=O)N[C@H](C(=O)N[C@@H](C)C(=O)N[C@@H](C)C(=O)O)C(C)C", "note": "[MMI-0100] (H-YARAAARQARAKALARQLGVAA-OH; N-terminus and C-terminus assumed)", "values": [
      {"measurement": "inhibition at 100 µM", "setting": "TrkB(h); read-out: inhibition of kinase activity of TrkB", "value": "> 65", "unit": "%"}
    ]},
    {"compound": "KAFAKLAARLYRKALARQLGVAA [MMI-0400]", "values": [
      {"measurement": "GSK3α(h) % activity", "setting": "GSK3α(h)", "value": 164, "unit": "%"},
      {"measurement": "TrkB(h) % activity", "setting": "TrkB(h)", "value": 8, "unit": "%"},
      {"measurement": "IRAK1(h) % activity", "setting": "IRAK1(h)", "value": 93, "unit": "%"},
      {"measurement": "CaMKIIδ(h) % activity", "setting": "CaMKIIδ(h)", "value": 2, "unit": "%"},
      {"measurement": "IRR(h) % activity", "setting": "IRR(h)", "value": 8, "unit": "%"},
      {"measurement": "LKB1(h) % activity", "setting": "LKB1(h)", "value": 89, "unit": "%"},
      {"measurement": "CDK1/cyclinB(h) % activity", "setting": "CDK1/cyclinB(h)", "value": 74, "unit": "%"},
      {"measurement": "TSSK2(h) % activity", "setting": "TSSK2(h)", "value": 94, "unit": "%"},
      {"measurement": "MST2(h) % activity", "setting": "MST2(h)", "value": 11, "unit": "%"},
      {"measurement": "PrKX(h) % activity", "setting": "PrKX(h)", "value": 76, "unit": "%"}
    ]},
    {"compound": "FAKLAARLYRKALARQLGVAA [MMI-0300]", "values": [
      {"measurement": "GSK3α(h) % activity", "setting": "GSK3α(h)", "value": 157, "unit": "%"},
      {"measurement": "TrkB(h) % activity", "setting": "TrkB(h)", "value": 5, "unit": "%"},
      {"measurement": "IRAK1(h) % activity", "setting": "IRAK1(h)", "value": 95, "unit": "%"},
      {"measurement": "CaMKIIδ(h) % activity", "setting": "CaMKIIδ(h)", "value": 1, "unit": "%"},
      {"measurement": "IRR(h) % activity", "setting": "IRR(h)", "value": 8, "unit": "%"},
      {"measurement": "LKB1(h) % activity", "setting": "LKB1(h)", "value": 101, "unit": "%"},
      {"measurement": "CDK1/cyclinB(h) % activity", "setting": "CDK1/cyclinB(h)", "value": 73, "unit": "%"},
      {"measurement": "TSSK2(h) % activity", "setting": "TSSK2(h)", "value": 98, "unit": "%"},
      {"measurement": "MST2(h) % activity", "setting": "MST2(h)", "value": 19, "unit": "%"},
      {"measurement": "PrKX(h) % activity", "setting": "PrKX(h)", "value": 61, "unit": "%"}
    ]}
  ]
}
